Assay results from patent publication US20260042834A1 (HBM ALPHA THERAPEUTICS, published 2026).

T1: biotinylated CRH (human and mouse, not fully specified; biotinylated, position not stated)
T1 construct: also called Biotin-CRH; biotin-labeled CRH
T1 peptide: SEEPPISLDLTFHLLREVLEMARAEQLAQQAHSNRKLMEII

T2: corticotropin-releasing hormone (CRH) peptide (human and mouse (same sequence), not fully specified)
T2 peptide: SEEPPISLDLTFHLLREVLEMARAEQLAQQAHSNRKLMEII


Target: T1, biotinylated CRH
Assay: Octet BLI, biotinylated CRH on SA sensor
Protocol: Octet® Red 96e was used for affinity measurement. Octet® running buffer was prepared by diluting kinetics buffer 10× (Fortebio, Cat #18-1105) in PBS according to the manufacturer's instructions. Two columns of SA sensors (Fortebio, Cat #18-5019) were hydrated in running buffer for 10 mins, one for ligand capturing and the other for reference. Antibodies were 2-fold diluted and added into a 96-well plate. […] After a 60-second baseline step, sensors were dipped into analyte and buffer wells successively, with the association and dissociation time of 180 seconds and 800 seconds, respectively. […] Signals of reference wells and reference sensors were subtracted by selecting “Double reference” before data fitting.

| Kd [nM] | koff [s⁻¹] | kon [M⁻¹ s⁻¹] | Binder |
| --- | --- | --- | --- |
| 0.12 | – | – | PR006669 (antibody, human IgG1, kappa, V domains shown, Series 2; human IgG1 wildtype Fc; also called Hybridoma Clone 52g7) VH: EVQLVESGGGLVQPGGSLRLSCAASGFTFSDNWMSWVRQAPGKGLEWVANIKQDGSENYYVDSVKGRFTISRDNAKNSLYLQMNSLRAEDTAVYYCSRGLALWGWGQGTLVTVSS VL: DIVMTHSPLSLPVTPGDPASISCRSSQSLLHSTGYNYLDWYLQKPGQSPQLLIYLGSNRASGVPDRFSGSGSGTDFTLKFIRVEAEDVGVYYCMQALQTPYTFGQGTKLEIKR |
| 0.0751 | 8.69e-05 | 1.16e+06 | PR006746 (antibody, human IgG1, kappa, V domains shown, PTM-removal variant of PR006669) VH: EVQLVESGGGLVQPGGSLRLSCAASGFTFSDNWMSWVRQAPGKGLEWVANIKQDSSENYYVDSVKGRFTISRDNAKNSLYLQMNSLRAEDTAVYYCSRGLALWGWGQGTLVTVSS VL: DIVMTHSPLSLPVTPGDPASISCRSSQSLLHSTGYNYLDWYLQKPGQSPQLLIYLGSNRASGVPDRFSGSGSGTDFTLKFIRVEAEDVGVYYCMQALQTPYTFGQGTKLEIKR |
| 0.00124 | – | – | PR301777 (antibody, human IgG1, kappa, V domains shown, Series 5; mouse variable domains with human IgG1 wildtype Fc) VH: EMKLEESGGGLVQPGGSMKLSCVASGFTFSNYWMNWVRQSPEKGLEWVAEIRLKSNNYATHYAESVKGRFTISRDDSKSGVYLQMNNLGAEDTGIYYCTVGTLVYWGQGTLVTVSA VL: DIVLTQSPASLAVSLGQRATISCRASQSVSTSTYNYMHWFQQKPGQPPKLLIKFASNLESGVPARFSGSGSGTDFTLNIHPVEEEDTATFYCQHSWEIPYTFGGGTKLEIKR |
| 0.109 | 4.84e-05 | 445000 | PR006146 (antibody, human IgG1, kappa, V domains shown, PTM-removal variant of PR004290) VH: EVQLVESGGVLVQPGGSLRLSCAASGFTFSSYWMTWVRQAPGKGLEWVANIKQDASEKYYVDSVKGRFTISRDNAKNSLFLQMNSLRAEDTAVYYCARTLIFDYWGQGTLVTVSS VL: DIVMTQSPLSLPVTPGEPASISCRSSQSLLHSTGYDSLEWYLQKPGQSPQLLIYLGSNRASGVPDRFSGSGSGTDFTLKISRVEAEDVGIYYCMQTLQTPITFGQGTRLEIKR |
| 0.102 | 5.66e-05 | 555000 | PR006150 (antibody, human IgG1, kappa, V domains shown, PTM-removal variant of PR004290) VH: EVQLVESGGVLVQPGGSLRLSCAASGFTFSSYWMTWVRQAPGKGLEWVANIKQDSSEKYYVDSVKGRFTISRDNAKNSLFLQMNSLRAEDTAVYYCARTLIFDYWGQGTLVTVSS VL: DIVMTQSPLSLPVTPGEPASISCRSSQSLLHSTGYDSLEWYLQKPGQSPQLLIYLGSNRASGVPDRFSGSGSGTDFTLKISRVEAEDVGIYYCMQTLQTPITFGQGTRLEIKR |
| 0.142 | 6.96e-05 | 489000 | PR006147 (antibody, human IgG1, kappa, V domains shown, PTM-removal variant of PR004290) VH: EVQLVESGGVLVQPGGSLRLSCAASGFTFSSYWMTWVRQAPGKGLEWVANIKQDASEKYYVDSVKGRFTISRDNAKNSLFLQMNSLRAEDTAVYYCARTLIFDYWGQGTLVTVSS VL: DIVMTQSPLSLPVTPGEPASISCRSSQSLLHSTGYHSLEWYLQKPGQSPQLLIYLGSNRASGVPDRFSGSGSGTDFTLKISRVEAEDVGIYYCMQTLQTPITFGQGTRLEIKR |
| 0.171 | 8.36e-05 | 487000 | PR006153 (antibody, human IgG1, kappa, V domains shown, PTM-removal variant of PR004290) VH: EVQLVESGGVLVQPGGSLRLSCAASGFTFSSYWMTWVRQAPGKGLEWVANIKQDSSEKYYVDSVKGRFTISRDNAKNSLFLQMNSLRAEDTAVYYCARTLIFDYWGQGTLVTVSS VL: DIVMTQSPLSLPVTPGEPASISCRSSQSLLHSTGYSSLEWYLQKPGQSPQLLIYLGSNRASGVPDRFSGSGSGTDFTLKISRVEAEDVGIYYCMQTLQTPITFGQGTRLEIKR |
| 0.106 | – | – | PR006148 (antibody, human IgG1, kappa, V domains shown, PTM-removal variant of PR004290) VH: EVQLVESGGVLVQPGGSLRLSCAASGFTFSSYWMTWVRQAPGKGLEWVANIKQDASEKYYVDSVKGRFTISRDNAKNSLFLQMNSLRAEDTAVYYCARTLIFDYWGQGTLVTVSS VL: DIVMTQSPLSLPVTPGEPASISCRSSQSLLHSTGYNPLEWYLQKPGQSPQLLIYLGSNRASGVPDRFSGSGSGTDFTLKISRVEAEDVGIYYCMQTLQTPITFGQGTRLEIKR |
| 0.16 | 8e-05 | 500000 | PR006151 (antibody, human IgG1, kappa, V domains shown, PTM-removal variant of PR004290) VH: EVQLVESGGVLVQPGGSLRLSCAASGFTFSSYWMTWVRQAPGKGLEWVANIKQDSSEKYYVDSVKGRFTISRDNAKNSLFLQMNSLRAEDTAVYYCARTLIFDYWGQGTLVTVSS VL: DIVMTQSPLSLPVTPGEPASISCRSSQSLLHSTGYHSLEWYLQKPGQSPQLLIYLGSNRASGVPDRFSGSGSGTDFTLKISRVEAEDVGIYYCMQTLQTPITFGQGTRLEIKR |
| 0.16 | 7.78e-05 | 487000 | PR006149 (antibody, human IgG1, kappa, V domains shown, PTM-removal variant of PR004290) VH: EVQLVESGGVLVQPGGSLRLSCAASGFTFSSYWMTWVRQAPGKGLEWVANIKQDASEKYYVDSVKGRFTISRDNAKNSLFLQMNSLRAEDTAVYYCARTLIFDYWGQGTLVTVSS VL: DIVMTQSPLSLPVTPGEPASISCRSSQSLLHSTGYSSLEWYLQKPGQSPQLLIYLGSNRASGVPDRFSGSGSGTDFTLKISRVEAEDVGIYYCMQTLQTPITFGQGTRLEIKR |
| < 0.001 | < 1e-07 | 6840 | PR302334-10 (antibody, human IgG1, kappa, V domains shown, Humanized variant of PR302334) VH: EVQLVESGGGLVQPGGSLRLSCAASGFTFSTYAMSWVRQAPGKGLEWVASIRSGGTTYYPDSVKGRFTISRDNSKNTLYLQMNSLRAEDTAVYYCTRGIDWGQGTTVTVSS VL: DIVMTQSPDSLAVSLGERATINCKASQSVNNDVAWYQQKPGQPPRLLIYYASNRYTGVPDRFSGSGSGTDFTLTISSLQAEDLAVYFCQQDYSSWTFGGGTKVEIKR |
| < 0.001 | < 1e-07 | 302000 | PR302334-27 (antibody, human IgG1, kappa, V domains shown, Humanized variant of PR302334) VH: EVQLVESGGGLVQPGGSLRLSCAASGFTFSTYAMSWVRQAPGKGLEWVASIRSGGTTYYPDSVKGRFTISRDNSKNSLYLQMNSLRAEDTAVYYCTRGIDWGQGTTVTVSS VL: DIQMTQSSLSASVSLGDRVTITCKASQSVNNDVAWYQQKPGKAPRLLIYYASNRYTGVPSRFSGSGSGTDFTFTISSLQPEDLATYFCQQDYSSWTFGGGTKVEIKR |
| < 0.001 | < 1e-07 | 606000 | PR302334-24 (antibody, human IgG1, kappa, V domains shown, Humanized variant of PR302334) VH: EVQLVESGGGLVKPGGSLRLSCAASGFTFSTYAMSWVRQAPGKGLEWVASIRSGGTTYYPDSVKGRFTISRDNAKNSLYLQMNSLRAEDTAVYYCTRGIDWGQGTTVTVSS VL: DIVMTQSPDSLAVSLGERATINCKASQSVNNDVAWYQQKPGQPPRLLIYYASNRYTGVPDRFSGSGSGTDFTLTISSLQAEDLAVYFCQQDYSSWTFGGGTKVEIKR |
| < 0.001 | < 1e-07 | 285000 | PR302334-25 (antibody, human IgG1, kappa, V domains shown, Humanized variant of PR302334) VH: EVQLVESGGGLVKPGGSLRLSCAASGFTFSTYAMSWVRQAPGKGLEWVASIRSGGTTYYPDSVKGRFTISRDNAKNSLYLQMNSLRAEDTAVYYCTRGIDWGQGTTVTVSS VL: DIQMTQSSLSASVSLGDRVTITCKASQSVNNDVAWYQQKPGKAPRLLIYYASNRYTGVPSRFSGSGSGTDFTFTISSLQPEDLATYFCQQDYSSWTFGGGTKVEIKR |
| < 0.001 | < 1e-07 | 684000 | PR302334-11 (antibody, human IgG1, kappa, V domains shown, Humanized variant of PR302334) VH: EVQLVESGGGLVQPGGSLRLSCAASGFTFSTYAMSWVRQAPGKGLEWVASIRSGGTTYYPDSVKGRFTISRDNSKNTLYLQMNSLRAEDTAVYYCTRGIDWGQGTTVTVSS VL: DIQMTQSSLSASVSLGDRVTITCKASQSVNNDVAWYQQKPGKAPRLLIYYASNRYTGVPSRFSGSGSGTDFTFTISSLQPEDIATYYCQQDYSSWTFGGGTKVEIKR |
| < 0.001 | < 1e-07 | 14700 | PR302334-8 (antibody, human IgG1, kappa, V domains shown, Humanized variant of PR302334) VH: EVQLVESGGGLVQPGGSLRLSCAASGFTFSTYAMSWVRQAPGKGLEWVASIRSGGTTYYPDSVKGRFTISRDNSKNTLYLQMNSLRAEDTAVYYCTRGIDWGQGTTVTVSS VL: EIVMTQSPATLSVSPGERATLSCKASQSVNNDVAWYQQKPGQAPRLLIYYASNRYTGIPARFSGSGSGTEFTLTISSLQSEDLAVYFCQQDYSSWTFGGGTKVEIKR |
| 0.0153 | 4.03e-06 | 263000 | PR302309 (antibody, human IgG1, kappa, V domains shown, Series 7; mouse variable domains with human IgG1 wildtype Fc) VH: QIQLVQSGPELKKPGETVKISCKASGYTFTNYGMNWVKQAPGKVLKWMGWINTYTGEPIYTDDFKGRFAFSLETSASTAYLQINNLKNEDTATYFCSRSTMITTGGVFAYWGQGTLVTVSA VL: DVLMAQTPLSLPVSLGDQASISCRSSQTIVHSDGNTYLEWYLQKPGQSPKLLIYKVSNRFSGVPDRFSGSGSGTDFTLKISRVEAEDLGVYYCFQGSHVPWTFGGGTKLEIKR |

Target: T2, corticotropin-releasing hormone (CRH) …
Assay: cell-based or functional assay

| hCRHR1 Luciferase Reporter Assay IC50 [nM] | mCrhr1 Luciferase Reporter Assay IC50 [nM] | Binder |
| --- | --- | --- |
| 0.512 | 1.37 | PR302341-43 (antibody, human IgG1, kappa, V domains shown) VH: QVQLVQSGAEVKKPGASVKVSCKASGYTFTDYFMKWVRQAPGQGLEWMGVINPNNADIFYNQKFKGRVTMTVDKSTSTAYMELSSLRSEDTAVYYCARGTDRALFAYWGQGTLVTVSS VL: DVVMTQTPLSSPVTLGQPASISCRSGQSIVHSDGNTYLEWYQQRPGQPPRLLIYKVSNRFSGVPDRFSGSGAGTDFTLKISRVEAEDLGVYYCFQGSHIPWTFGGGTKVEIKR |
| 0.646 | – | PR302341-44 (antibody, human IgG1, kappa, V domains shown) VH: QVQLVQSGAEVKKPGASVKVSCKASGYTFTDYFMKWVRQAPGQGLEWMGVINPNSGDIFYNQKFKGRVTMTVDKSTSTAYMELSSLRSEDTAVYYCARGTDRALFAYWGQGTLVTVSS VL: DVVMTQTPLSSPVTLGQPASISCRSGQSIVHSDGNTYLEWYQQRPGQPPRLLIYKVSNRFSGVPDRFSGSGAGTDFTLKISRVEAEDLGVYYCFQGSHIPWTFGGGTKVEIKR |
